The record followed here is patent publication US20170240637A1 (Memorial Sloan Kettering, published 2017).

A word on the Kd: it is the equilibrium constant for the complex coming apart. A high value points to weaker binding. Usually koff stands for the rate constant with which the complex falls apart. The low end stands for slow dissociation, the high end for fast dissociation. In general, kon refers to a measure of how fast the partners come together. Lower therefore signals slower complex formation.

Experiment [1] has as its target T1, 4Ig-B7H3 (human, UniProt Q5ZPR3 27-461, limits assumed).
T1 construct: also called 4Ig-B73H3
T1 sequence (looked up): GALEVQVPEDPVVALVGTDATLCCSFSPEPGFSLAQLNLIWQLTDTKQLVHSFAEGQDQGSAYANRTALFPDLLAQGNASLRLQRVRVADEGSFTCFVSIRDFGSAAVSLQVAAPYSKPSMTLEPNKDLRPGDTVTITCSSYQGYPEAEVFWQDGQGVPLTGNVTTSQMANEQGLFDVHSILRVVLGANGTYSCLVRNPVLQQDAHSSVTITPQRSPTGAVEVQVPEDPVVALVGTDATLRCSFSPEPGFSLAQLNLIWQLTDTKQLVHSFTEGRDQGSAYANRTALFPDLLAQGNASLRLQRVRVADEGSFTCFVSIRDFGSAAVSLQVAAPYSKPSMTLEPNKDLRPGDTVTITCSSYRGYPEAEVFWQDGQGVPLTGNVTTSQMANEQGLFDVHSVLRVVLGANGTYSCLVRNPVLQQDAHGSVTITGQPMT
The experiment can be described thus: SPR (Biacore), scFv; antigen not given. As to the method: (§1) In brief, B7H3 antigen (either 2Ig-B7H3, 4Ig-B7H3, 2Ig-B7H3-mFc, 4Ig-B7H3-mFc), was directly immobilized onto the CM5 sensor chip via […]. Reference surface was set up for nonspecific binding and refractive index changes. For analysis of the kinetics of interactions, varying concentrations of scFvs were injected at flow rate of 30 μl/min using running buffer containing 10 mM HEPES, 150 mM NaCl, 3 mM EDTA, and 0.05% Surfactant P-20 (pH 7.4). The association and dissociation phase data were fitted simultaneously to a 1:1 model by using BIAevaluation 3.2. All the experiments were done at 25° C.
(In general: Surface plasmon resonance follows binding to a sensor surface in real time, without labels.)

The target of experiment [2] is T1, 4Ig-B7H3. The experiment can be described thus: SPR (Biacore T-100), 4Ig-B7H3 on CM5 chip, scFv injected. As to the method: as §1
The target in experiment [3] is T1, 4Ig-B7H3. The experiment can be described thus: SPR.
Experiment [4] concerns the target T1, 4Ig-B7H3. The experiment can be described thus: SPR, IgG on 4Ig-B7-H3 without Fc fusion. As to the method: (§2) In brief, B7H3 antigen (either 2Ig-B7H3, 4Ig-B7H3, 2Ig-B7H3-mFc, 4Ig-B7H3-mFc), was directly immobilized onto the CM5 sensor chip via […]. Reference surface was set up for nonspecific binding and refractive index changes. […] The association and dissociation phase data were fitted simultaneously to a 1:1 model by using BIAevaluation 3.2. All the experiments were done at 25° C.

The target in experiment [5] is T2, wild type 2Ig-B7H3-mFc (human, UniProt Q5ZPR3-2 29-248, limits assumed).
T2 construct: Q5ZPR3 canonical entry is the 4Ig isoform; the 2Ig form is its shorter isoform; also called 2Ig-B7H3-Fc; WT 2Ig-B7H3-Fc; not shown: mouse Fc
T2 sequence (looked up): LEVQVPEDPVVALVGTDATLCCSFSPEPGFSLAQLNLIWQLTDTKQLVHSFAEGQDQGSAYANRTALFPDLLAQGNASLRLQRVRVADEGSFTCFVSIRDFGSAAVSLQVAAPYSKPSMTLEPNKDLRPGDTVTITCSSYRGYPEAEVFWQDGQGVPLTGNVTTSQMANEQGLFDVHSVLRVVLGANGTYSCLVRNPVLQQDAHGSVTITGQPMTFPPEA
The experiment can be described thus: SPR, IgG on 2Ig-B7H3-mFc. The procedure:
as §2

Experiment [6] concerns the target T3, 2Ig-B7H3 without Fc fusion (human, UniProt Q5ZPR3-2 29-245, limits assumed).
T3 construct: also called 2IgB7H3 (R&D)
T3 sequence (looked up): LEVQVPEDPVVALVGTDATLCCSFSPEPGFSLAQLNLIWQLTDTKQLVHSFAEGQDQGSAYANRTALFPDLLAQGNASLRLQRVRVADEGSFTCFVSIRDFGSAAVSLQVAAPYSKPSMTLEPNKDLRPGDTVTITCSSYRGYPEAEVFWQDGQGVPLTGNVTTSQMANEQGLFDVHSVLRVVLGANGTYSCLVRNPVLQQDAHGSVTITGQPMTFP
The experiment can be described thus: SPR, IgG on 2Ig-B7-H3 without Fc fusion. As to the method:
as §2

In experiment [7] the target is T4, 4Ig-B7H3 fused to mouse Fc (B7H3-mFc) (human, UniProt Q5ZPR3 29-466, limits assumed, biotinylated on primary amines (NHS-biotin) in the experiment of paragraph 316).
T4 construct: Expressed in DG44 CHO cells; also called 4Ig-B7H3-Fc; 4Ig-B7H3-mFc; not shown: mouse Fc
T4 sequence (looked up): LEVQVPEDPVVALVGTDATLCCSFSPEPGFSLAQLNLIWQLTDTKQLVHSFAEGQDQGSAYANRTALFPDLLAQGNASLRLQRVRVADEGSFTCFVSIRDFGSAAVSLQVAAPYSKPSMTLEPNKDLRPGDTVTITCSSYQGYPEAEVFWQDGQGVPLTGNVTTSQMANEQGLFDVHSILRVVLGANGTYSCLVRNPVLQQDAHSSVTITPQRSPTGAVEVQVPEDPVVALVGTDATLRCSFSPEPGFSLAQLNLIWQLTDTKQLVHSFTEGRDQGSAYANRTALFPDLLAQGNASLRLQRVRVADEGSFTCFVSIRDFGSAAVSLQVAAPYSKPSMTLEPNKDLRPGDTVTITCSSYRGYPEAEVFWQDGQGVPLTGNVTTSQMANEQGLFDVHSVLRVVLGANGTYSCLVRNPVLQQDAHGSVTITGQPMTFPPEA
The experiment can be described thus: SPR, IgG on 4Ig-B7H3-Fc. The procedure: as §2

B1: hu8H9 5.1 scFv (scFv)
scFv: QVQLVQSGAEVVKPGASVKVSCKTSGYTFTNYDINWVRQRPGQGLEWIGWIFPGDDSTQYNEKFKGRVTMTTDTSTSTVYMELSSLRSEDTAVYFCARQTTGTWFAYWGQGTLVTVSSGGGGSGGGGSGGGGSEIVMTQSPATLSVSPGERVTLSCRASQSISDYLYWYQQKSHQAPRLLIKYASQSISGIPARFSGSGSGSEFTLTISSLQPEDFGVYYCQNGHSFPLTFGQGTKLELKR
notes: not shown: FLAG and His tags
For the molecule B1, in experiment [1], the Kd came out at 1.7 nM, the koff amounted to 9.84e-05 s⁻¹ and the kon stood at 58800 M⁻¹ s⁻¹.

B2: hu8H9 H3L3 scFv (scFv)
scFv: QVQLVQSGAEVVKPGASVKLSCKASGYTFTNYDINWVRQRPEQGLEWIGWIFPGDGSTQYNEKFKGKATLTTDTSTSTAYMELSSLRSEDTAVYFCARQTTATWFAYWGQGTLVTVSSGGGGSGGGGSGGGGSEIVMTQSPATLSVSPGERVSLSCRASQSISDYLHWYQQKSHESPRLLIKYASQSISGIPARFSGSGSGSEFTLTINSVEPEDVGVYYCQNGHSFPLTFGQGTKLELKR
notes: also called parental hu8H9 H3L3; not shown: FLAG and His tags
As for B2, in experiment [1], binding was characterised by a dissociation constant (Kd) of 144 nM, the koff is 0.000919 s⁻¹ and the kon was determined as 6380 M⁻¹ s⁻¹. In addition, in experiment [2], the affinity, expressed as Kd, was 144 nM; the dissociation rate constant (koff) came out at 0.000919 s⁻¹; the kon stood at 6380 M⁻¹ s⁻¹.

B3: hu8H9 clone S7.28 scFv (scFv)
scFv: QVQLVQSGAEVVKPGASVKLSCKTSGYTFTNYDINWVRQRPGQGLEWIGWIFPGDGSTQYNEKFKGKATLTTDTSTSTAYMELSSLGSEDTAVYFCTRQTTATWFAYWGQGTLVTVSSGGGGSGGGGSSGGGSEIVMTQSPATLSVSPGERVTLSCRASQSIGDYLYWYQQKSHESPRLLIKYASQSISGIPARFSGSGSGSEFTLTINSVEPEDVGVYYCQNGHSFPLTFGQGTKLELKR
notes: not shown: FLAG and His tags
As to B3, in experiment [2], binding was put at a Kd of 277 nM, the koff is 0.00132 s⁻¹ and the kon turned out to be 4750 M⁻¹ s⁻¹.

B4: hu8H9 3.1 scFv (scFv)
scFv: QVQLVQSGAEVVKPGASVKLSCKTSGYTFTNYDINWVRQRPGQGLEWIGWIFPGDDSTQYNEKFKGKATLTTDTSTSTAYMELSSLRSEDTAVYFCARQTTGTWFAYWGQGTLVTVSSGGGGSGGGGSGGGGSEIVMTQSPATLSVSPGERVTLSCRASQSISDYLYWYQQKSHESPRLLIKYASQSISGIPARFSGSGSGSEFTLTINSVEPEDVGVYYCQNGHSFPLTFGQGTKLELKR
notes: not shown: FLAG and His tags
As to B4, in experiment [1], the Kd is 0.92 nM, the dissociation rate constant (koff) stood at 9.52e-05 s⁻¹ and the kon stood at 104000 M⁻¹ s⁻¹.

B5: hu8H9 clone S7.17 scFv (scFv)
scFv: QVQLVQSGAEVVKPGASVKLSCKTSGYTFTNYDINWVRQRPGQGLEWVGWIFPGDGSTQYNEKFKGKATLTTDTSTSTAYMELSSLRSEDTAVYFCARQTTSTWFAYWGQGTLVTVSSGGGGSGGGGSGGGGSEIVMTQSPATLSVSPGERVTLSCRASQPISDYLYWYQQKSHESPRLLIKYASQSISGIPARFSGSGSGSEFTLTINSVEPEDVGVYYCQNGYSFPLTFGQGTKLELKR
notes: not shown: FLAG and His tags
On to B5, for which, in experiment [2], the Kd turned out to be 2.2 nM, the koff worked out at 0.000113 s⁻¹ and the kon turned out to be 51000 M⁻¹ s⁻¹. Moreover, the “fold affinity improvement against parental hu8H9 H3L3 scFv” value (“fold affinity improvement” for short) in experiment [3] was above 50 fold.

B6: hu8H9 clone S7.2 scFv (scFv)
scFv: QVQLVQSGAEVVKPGASCKLSCKTSGYTFTNYDINWVRQRPGQGLEWIGWIFPGDGSTQYNEKFKGKATLTTDTSTSTAYMELSSLRSEDTAVYFCARQTTATWFAYWGQGTLVTVSSGGGGSGGGGSGGVGSEIVMTQSPATLSVSPGERVTLSCRASQSIGDYLYWYQQKSHESPRLLIKYASQSISGIPARFSGSGSGSEFTLTINSVEPEDVGVYYCQNGHSFPLTFGQGTKLELKR
notes: not shown: FLAG and His tags
Take B6: in experiment [2], the Kd was 5.6 nM, the koff is 0.000143 s⁻¹ and the kon came out at 25400 M⁻¹ s⁻¹.

B7: hu8H9 clone S7.22 scFv (scFv)
scFv: QVQLVQSGAEVVKPGASVKLSCKTSGYTFTNYDINWVRQRPGQGLEWIGWIFPGDDSTQYNEKFKGKATLTTDTSTSTAYMELSSLRPEDTAVYFCARQTTGTWFAYWGQGTLVTVSSGGGGSGGGGSGGGGSEIVMTQSPATLSVSPGERVTLSCRASQSISDYLYWYQQKSHESPRLLIKYASQSIPGIPARFSGSGSGSEFTLTINSVEPEDVGVYYCQNGHSFPLTFGQGTKLELKR
notes: not shown: FLAG and His tags
In experiment [2], B7 returned a Kd of 1.2 nM, a koff of 9.99e-05 s⁻¹ and a kon of 86100 M⁻¹ s⁻¹. Moreover, in experiment [3], the “fold affinity improvement” value was above 50 fold and the “fold binding improvement against parental hu8H9 H3L3 scFv” value is above 100 fold.

B8: hu8H9 clone S7.29 scFv (scFv)
scFv: QVQLVQSGAEVVKPGASVKLSCKTSGYTFTNYDINWVRQRPGQGLEWIGWIFPGDGSTQYNEKFKGKATLTTDTSTSTAYLELSSLGSEDTAVYFCARQTTGTWFAYWGQGTLVTVSSGGGGSGGGGSGGGGSEIVMTQSPATLSVSPGERVTLSCRASQSISDYLYWYQQKSHESPRLLIKYASQSISGIPARFSGSGSGSEFTLTINSVEPEDVGVYYCQNGHSFPLTFGQGTKLELKR
notes: not shown: FLAG and His tags
In experiment [2], B8 displayed a Kd of 2.7 nM, a koff of 0.000152 s⁻¹ and a kon of 55900 M⁻¹ s⁻¹. The “fold affinity improvement” value in experiment [3] was above 50 fold.

B9: hu8H9 4.1 scFv (scFv)
scFv: QVQLVQSGAEVVKPGASVKVSCKASGYTFTNYDINWVRQRPEQGLEWIGWIFPGDGSTQYNEKFKGRVTMTTDTSTSTVYMELSSLRSEDTAVYFCARQTTATWFAYWGQGTLVTVSSGGGGSGGGGSGGGGSEIVMTQSPATLSVSPGERVTLSCRASQSISDYLHWYQQKSHQAPRLLIKYASQSISGIPARFSGSGSGSEFTLTISSLQPEDFGVYYCQNGHSFPLTFGQGTKLELKR
notes: not shown: FLAG and His tags
In experiment [1], B9 showed a Kd of 45.7 nM, a koff of 0.000557 s⁻¹ and a kon of 12200 M⁻¹ s⁻¹.

B10: hu8H9 H3L3 IgG1 (antibody, V domains shown)
VH: QVQLVQSGAEVVKPGASVKLSCKASGYTFTNYDINWVRQRPEQGLEWIGWIFPGDGSTQYNEKFKGKATLTTDTSTSTAYMELSSLRSEDTAVYFCARQTTATWFAYWGQGTLVTVSS
VL: EIVMTQSPATLSVSPGERVSLSCRASQSISDYLHWYQQKSHESPRLLIKYASQSISGIPARFSGSGSGSEFTLTINSVEPEDVGVYYCQNGHSFPLTFGQGTKLELKR
For the molecule B10, the Kd turned out to be 33 nM in experiment [4], 7.5 nM in experiment [5], 45 nM in experiment [6] and 6.6 nM in experiment [7]. Moreover, the koff is 0.000677 s⁻¹ in experiment [4], 0.035 s⁻¹ in experiment [5], 0.000607 s⁻¹ in experiment [6] and 0.0452 s⁻¹ in experiment [7]. The on-rate constant (kon) in experiment [4] amounted to 20500 M⁻¹ s⁻¹; in experiment [5], 4.67e+06 M⁻¹ s⁻¹; in experiment [6], 13500 M⁻¹ s⁻¹; in experiment [7] it was 6.83e+06 M⁻¹ s⁻¹.
